In the data set the target is T1, CLAMP (recombinant full-length) (UniProt Q9V9N4 1-561).
T1 sequence: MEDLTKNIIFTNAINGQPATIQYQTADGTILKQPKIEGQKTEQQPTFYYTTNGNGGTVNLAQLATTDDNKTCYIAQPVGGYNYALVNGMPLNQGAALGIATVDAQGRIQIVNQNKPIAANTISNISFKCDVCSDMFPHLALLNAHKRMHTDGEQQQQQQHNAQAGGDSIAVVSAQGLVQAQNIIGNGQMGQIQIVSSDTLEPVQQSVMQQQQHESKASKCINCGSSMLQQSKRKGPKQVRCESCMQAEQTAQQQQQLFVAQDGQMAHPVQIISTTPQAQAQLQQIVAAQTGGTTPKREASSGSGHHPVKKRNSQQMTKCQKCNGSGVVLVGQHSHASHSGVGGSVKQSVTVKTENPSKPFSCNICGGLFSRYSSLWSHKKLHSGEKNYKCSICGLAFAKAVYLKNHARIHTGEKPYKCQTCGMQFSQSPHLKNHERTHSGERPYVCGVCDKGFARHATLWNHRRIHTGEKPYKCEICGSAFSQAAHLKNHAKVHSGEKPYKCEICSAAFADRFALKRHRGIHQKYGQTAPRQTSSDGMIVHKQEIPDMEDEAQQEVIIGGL
The data set can be described thus: EMSA. (In general: A gel shift assay detects complexes by their altered migration in electrophoresis.)

B1: GA del H3/H4p probe, biotin (198 bp) (dsDNA)
DNA 1: CACAGCACGAAAGTCACTAAAGAACTAATTTCAACGTTTCTGTGTGCCCCTATTTATAGGTAAAACGACAAAAACCCTACGAACGATATGTTCGTTCGCTTTTCGCTCGTCAAATGAAATGGCCTCTGTTTTTTCACCGTCCACGATTGCTATATAAGTAGGTAGCAAATGCTCTGATCGTTTATTGTGTTTTCAAAC
DNA 2: GTTTGAAAACACAATAAACGATCAGAGCATTTGCTACCTACTTATATAGCAATCGTGGACGGTGAAAAAACAGAGGCCATTTCATTTGACGAGCGAAAAGCGAACGAACATATCGTTCGTAGGGTTTTTGTCGTTTTACCTATAAATAGGGGCACACAGAAACGTTGAAATTAGTTCTTTAGTGACTTTCGTGCTGTG
As for B1, the binding result is recorded as “no binding”.

Values taken from paper PMC10723421.
